Assay results reported in US20240270821A1, “GIP/GLP1/GCG TRI-RECEPTOR AGONISTS AND USES THEREOF” (priority 2023, published 2024).
Positions count from the first letter of the chain named.

T1: human GIP receptor (human) (UniProt P48546)
T1 sequence (looked up): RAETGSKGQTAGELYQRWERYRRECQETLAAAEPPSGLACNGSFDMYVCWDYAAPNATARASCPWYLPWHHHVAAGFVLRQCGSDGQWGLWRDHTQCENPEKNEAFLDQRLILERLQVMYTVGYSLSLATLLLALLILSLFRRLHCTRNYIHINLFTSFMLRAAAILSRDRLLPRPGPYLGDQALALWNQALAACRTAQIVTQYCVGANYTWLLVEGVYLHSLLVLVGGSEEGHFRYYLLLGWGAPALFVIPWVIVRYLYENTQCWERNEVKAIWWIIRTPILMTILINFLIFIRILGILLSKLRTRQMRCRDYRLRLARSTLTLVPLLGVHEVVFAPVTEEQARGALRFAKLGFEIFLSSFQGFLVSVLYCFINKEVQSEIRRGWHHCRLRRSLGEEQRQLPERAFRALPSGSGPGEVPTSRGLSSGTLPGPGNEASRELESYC

B1: Example 1040 (peptide)
chain: YXQGTFTSDFSQXLDXKAQXAFIEXLLEAGPSSGAPPPSGSEEE
modifications: Aib, αMeL, Orn, Me4Pal; acylated K; C-terminal amide; synthetic construct; SITE 2: note = 2-Aminoisobutyric Acid; SITE 13: note = alpha-methyl-leucine; SITE 16: note = L-ornithine; SITE 17: note = Lysine is chemically modified through conjugation of the epsilon-amino group of the Lysine side chain with (gamma-Glu)2-CO-(CH2)16-CO2H; SITE 20: note = 2-Am
B2: Example 1071 (peptide)
chain: B1 chain with F10X, L27I, A29G
modifications: acylated Lys e-γGlu-C18 diacid; non-natural residues; C-terminal amide; synthetic construct; SITE 2: note = 2-Aminoisobutyric Acid; SITE 10: note = 3-(4-Pyridyl)-L-alanine; SITE 13: note = alpha-methyl-leucine; SITE 16: note = L-ornithine; SITE 17: note = Lysine is chemically modified through conjugation of the epsilon-amino group of the Lysine side chain with D-Glutami
B3: Example 1041 (peptide)
chain: YXQGTFTSDXSQXLDXKAQXAFIEXLIEGGPSSGAPPPSGSEE
modifications: Aib, 4Pal, Orn, Me4Pal, αMeY; acylated lysine; amide; synthetic construct; SITE 2: note = 2-Aminoisobutyric Acid; SITE 10: note = 3-(4-Pyridyl)-L-alanine; SITE 13: note = alpha-methyl-leucine; SITE 16: note = L-ornithine; SITE 17: note = Lysine is chemically modified through conjugation of the epsilon-amino group of the Lysine side chain with (2-[2-(2-
B4: Example 1050 (peptide)
chain: B3 chain with X10F, Q12X, I27L, S39G
modifications: non-natural residues; Lys acylated C18 diacid via γGlu2; C-term amide; synthetic construct; SITE 2: note = 2-Aminoisobutyric Acid; SITE 12: note = L-ornithine; SITE 13: note = alpha-methyl-leucine; SITE 16: note = L-ornithine; SITE 17: note = Lysine is chemically modified through conjugation of the epsilon-amino group of the Lysine side chain with (gamma-Glu)2-CO-(CH2)
B5: Example 1066 (peptide)
chain: B3 chain with Q12X, I27L
modifications: non-natural residues, Glu-γGlu-C18 diacid acylation, C-terminal amide; synthetic construct; SITE 2: note = 2-Aminoisobutyric Acid; SITE 10: note = 3-(4-Pyridyl)-L-alanine; SITE 12: note = L-ornithine; SITE 13: note = alpha-methyl-leucine; SITE 16: note = L-ornithine; SITE 17: note = Lysine is chemically modified through conjugation of the epsilon-amino group of the Lys
B6: Example 1044 (peptide)
chain: B3 chain
modifications: non-natural residues, (γGlu)2-C18 diacid lysine acylation, C-terminal amide; synthetic construct; SITE 2: note = 2-Aminoisobutyric Acid; SITE 10: note = 3-(4-Pyridyl)-L-alanine; SITE 13: note = alpha-methyl-leucine; SITE 16: note = L-ornithine; SITE 17: note = Lysine is chemically modified through conjugation of the epsilon-amino group of the Lysine side chain with (gamma-Gl)
B7: Example 1060 (peptide)
chain: B3 chain with Q12X, X16K, X25Y, E28A
modifications: Aib, 4Pal, Orn, αMeL, Me4Pal; acylated Lys; C-terminal amide; synthetic construct; SITE 2: note = 2-Aminoisobutyric Acid; SITE 10: note = 3-(4-Pyridyl)-L-alanine; SITE 12: note = L-ornithine; SITE 13: note = alpha-methyl-leucine; SITE 17: note = Lysine is chemically modified through conjugation of the epsilon-amino group of the Lysine side chain with (Glu)-(ga)
B8: Example 1067 (peptide)
chain: B3 chain with Q12X, I27L
modifications: non-natural residues; lysine acylated with C18 diacid; C-terminal amide; synthetic construct; SITE 2: note = 2-Aminoisobutyric Acid; SITE 10: note = 3-(4-Pyridyl)-L-alanine; SITE 12: note = L-ornithine; SITE 13: note = alpha-methyl-leucine; SITE 16: note = L-ornithine; SITE 17: note = Lysine is chemically modified through conjugation of the epsilon-amino group of the Lys
B9: Example 1069 (peptide)
chain: B3 chain with Q12X, X25Y, I27L, E28A
modifications: non-natural residues; acylated Lys; C-terminal amide; synthetic construct; SITE 2: note = 2-Aminoisobutyric Acid; SITE 10: note = 3-(4-Pyridyl)-L-alanine; SITE 12: note = L-ornithine; SITE 13: note = alpha-methyl-leucine; SITE 16: note = L-ornithine; SITE 17: note = Lysine is chemically modified through conjugation of the epsilon-amino group of the Lys
B10: Example 1048 (peptide)
chain: B3 chain with X10F, Q12X, X25Y, I27L, S39G
modifications: non-natural residues (Aib, Orn, αMeL); lipidated Lys; C-terminal amide; synthetic construct; SITE 2: note = 2-Aminoisobutyric Acid; SITE 12: note = L-ornithine; SITE 13: note = alpha-methyl-leucine; SITE 16: note = L-ornithine; SITE 17: note = Lysine is chemically modified through conjugation of the epsilon-amino group of the Lysine side chain with (gamma-Glu)2-CO-(CH2)
B11: Example 1059 (peptide)
chain: B3 chain with Q12X, X25Y, E28A
modifications: acylated Lys, C-terminal amide, non-natural residues; synthetic construct; SITE 2: note = 2-Aminoisobutyric Acid; SITE 10: note = 3-(4-Pyridyl)-L-alanine; SITE 12: note = L-ornithine; SITE 13: note = alpha-methyl-leucine; SITE 16: note = L-ornithine; SITE 17: note = Lysine is chemically modified through conjugation of the epsilon-amino group of the Lys
B12: Example 1053 (peptide)
chain: B3 chain with X10F, Q12X, I27L, E28A, S39E
modifications: non-natural residues, (γGlu)2-C18 diacid lysine acylation, C-terminal amide; synthetic construct; SITE 2: note = 2-Aminoisobutyric Acid; SITE 12: note = L-ornithine; SITE 13: note = alpha-methyl-leucine; SITE 16: note = L-ornithine; SITE 17: note = Lysine is chemically modified through conjugation of the epsilon-amino group of the Lysine side chain with (gamma-Glu)2-CO-(CH2)
B13: Example 1058 (peptide)
chain: B3 chain with I27L
modifications: non-natural residues; lysine acylated γGlu-C18 diacid; C-terminal amide; synthetic construct; SITE 2: note = 2-Aminoisobutyric Acid; SITE 10: note = 3-(4-Pyridyl)-L-alanine; SITE 13: note = alpha-methyl-leucine; SITE 16: note = L-ornithine; SITE 17: note = Lysine is chemically modified through conjugation of the epsilon-amino group of the Lysine side chain with D-Glutami
B14: Example 1070 (peptide)
chain: B3 chain
modifications: Aib, 4Pal, αMeL, Orn, Me4Pal, αMeY; acylated Lys; C-terminal amide; synthetic construct; SITE 2: note = 2-Aminoisobutyric Acid; SITE 10: note = 3-(4-Pyridyl)-L-alanine; SITE 13: note = alpha-methyl-leucine; SITE 16: note = L-ornithine; SITE 17: note = Lysine is chemically modified through conjugation of the epsilon-amino group of the Lysine side chain with D-Glutami
B15: Example 1043 (peptide)
chain: B3 chain
modifications: non-natural residues, C18 diacid-(γGlu)2 acyl on K, C-terminal amide; synthetic construct; SITE 2: note = 2-Aminoisobutyric Acid; SITE 10: note = 3-(4-Pyridyl)-L-alanine; SITE 13: note = alpha-methyl-leucine; SITE 16: note = L-ornithine; SITE 17: note = Lysine is chemically modified through conjugation of the epsilon-amino group of the Lysine side chain with (gamma-Gl)

molecular target: human glucagon receptor (human) (UniProt P47871); test: cell-based or functional assay
Sequence (P47871 26-477): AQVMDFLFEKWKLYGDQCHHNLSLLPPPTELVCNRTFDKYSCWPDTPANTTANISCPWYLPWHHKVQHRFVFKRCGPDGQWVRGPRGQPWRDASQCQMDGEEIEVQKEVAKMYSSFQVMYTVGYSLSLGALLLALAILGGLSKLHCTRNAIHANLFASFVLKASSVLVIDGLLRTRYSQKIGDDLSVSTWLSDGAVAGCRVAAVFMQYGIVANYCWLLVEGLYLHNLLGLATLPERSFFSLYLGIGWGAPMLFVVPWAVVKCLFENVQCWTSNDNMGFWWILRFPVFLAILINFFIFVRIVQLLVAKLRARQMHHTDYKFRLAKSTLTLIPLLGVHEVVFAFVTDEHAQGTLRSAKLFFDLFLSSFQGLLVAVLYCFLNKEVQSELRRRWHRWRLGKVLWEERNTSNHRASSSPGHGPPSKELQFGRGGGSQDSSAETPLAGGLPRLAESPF

Binder	cAMP Rel EC50, nM (1% HSA)	Relative cAMP EC50	cAMP Rel EC50 (1% HSA)
B1	2020 nM	–	–
B2	–	0.0235 µM	2.99 µM
B3	1720 nM	–	–
B4	–	0.0068 µM	2.04 µM
B5	–	0.0254 µM	4.26 µM
B6	2410 nM	–	–
B7	–	0.00908 µM	4.9 µM
B8	–	0.0126 µM	1.86 µM
B9	–	0.0212 µM	2.16 µM
B10	1930 nM	0.0069 µM	–
B11	–	0.00752 µM	0.748 µM
B12	–	0.0104 µM	3.47 µM
B13	–	0.0058 µM	1.45 µM
B14	–	0.0202 µM	1.94 µM
B15	2240 nM	–	–

molecular target: hGLP-1R (Homo sapiens, UniProt P43220); test: cell-based or functional assay
Sequence (P43220 24-463): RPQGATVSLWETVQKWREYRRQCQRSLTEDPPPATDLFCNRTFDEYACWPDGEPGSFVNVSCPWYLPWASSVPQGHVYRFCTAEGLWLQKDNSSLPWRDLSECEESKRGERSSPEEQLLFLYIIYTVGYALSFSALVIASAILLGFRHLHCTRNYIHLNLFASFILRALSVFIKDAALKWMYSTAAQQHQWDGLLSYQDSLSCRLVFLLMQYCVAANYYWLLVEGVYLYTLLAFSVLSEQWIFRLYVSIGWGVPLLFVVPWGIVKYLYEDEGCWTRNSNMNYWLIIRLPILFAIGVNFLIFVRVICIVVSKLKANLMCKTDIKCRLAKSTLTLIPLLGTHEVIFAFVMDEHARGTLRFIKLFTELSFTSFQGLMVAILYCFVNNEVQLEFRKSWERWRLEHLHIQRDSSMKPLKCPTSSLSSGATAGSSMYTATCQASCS

Binder	cAMP Rel EC50, nM (1% HSA)	Relative cAMP EC50	cAMP Rel EC50 (1% HSA)
B1	322 nM	–	–
B2	–	0.00206 µM	0.425 µM
B3	316 nM	–	–
B4	–	0.00765 µM	1.24 µM
B5	–	0.0098 µM	1.85 µM
B6	1110 nM	–	–
B7	–	0.00285 µM	–
B8	–	0.0176 µM	2.61 µM
B9	–	0.00887 µM	1.29 µM
B10	1900 nM	0.00623 µM	–
B11	–	0.00461 µM	–
B12	–	0.0062 µM	–
B13	–	0.00448 µM	–
B14	–	0.00154 µM	0.321 µM
B15	268 nM	–	–

molecular target: T1, human GIP receptor (human); test: cell-based or functional assay

Binder	cAMP Rel EC50, nM (1% HSA)	Relative cAMP EC50	cAMP Rel EC50 (1% HSA)
B1	20.8 nM	–	–
B2	–	0.000261 µM	0.0402 µM
B3	75.7 nM	–	–
B4	–	0.000152 µM	0.0685 µM
B5	–	0.000446 µM	0.0699 µM
B6	88.7 nM	–	–
B7	–	0.000223 µM	0.0447 µM
B8	–	0.000471 µM	0.0864 µM
B9	–	0.000417 µM	0.0395 µM
B10	108 nM	0.000356 µM	–
B11	–	0.000468 µM	0.0489 µM
B12	–	0.000123 µM	0.0193 µM
B13	–	0.000139 µM	0.0456 µM
B14	–	0.000167 µM	0.0273 µM
B15	44.9 nM	–	–
